From US20240294618A1 (CENTIVAX, published 2024)
Where “and” joins values, the source holds several entries; their conditions need not be identical. Equal values may be shown once. Read-outs that look alike come from different tables or passages of the source.

Legend:
[1] = molecular target: T1, long-neurotoxin-mamba (dendroapsis) (alpha-elapitoxin-dpp2d), recombinant, Mamba-Avi-His (black mamba (Dendroaspis polylepsis), UniProt C0HJD7 1-72)
T1 sequence: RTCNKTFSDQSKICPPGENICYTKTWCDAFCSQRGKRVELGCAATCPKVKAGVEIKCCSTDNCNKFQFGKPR

[2] = molecular target: T2, long-neurotoxin-taipan, recombinant, Taipan-Avi-His (coastal taipan (Oxyuranus scutatellus), UniProt A8HDK9 22-92)
T2 sequence: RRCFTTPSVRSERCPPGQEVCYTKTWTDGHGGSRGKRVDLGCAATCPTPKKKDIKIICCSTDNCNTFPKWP

[3] = molecular target: T3, long-neurotoxin-cobra (naja) (alpha-neurotoxin), recombinant, Cobra-Avi-His (cape cobra (Naja nivea), UniProt P01390 1-71)
T3 sequence: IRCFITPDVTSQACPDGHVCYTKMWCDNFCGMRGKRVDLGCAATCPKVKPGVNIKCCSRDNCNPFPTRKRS

[4] = molecular target: T2, long-neurotoxin-taipan, recombinant, …; remark: listed apart in the source
[5] = molecular target: T1, long-neurotoxin-mamba (dendroapsis) …; assay: off-rate kinetics; platform not named
[6] = molecular target: T2, long-neurotoxin-taipan, recombinant, …; assay: off-rate kinetics; platform not named
[7] = molecular target: T4, long-neurotoxin-krait (bungarus) (alpha-bungarotoxin) (krait (Bungarus caeruleus), UniProt D2N116 3-76); assay: off-rate kinetics; platform not named
T4 construct: also called Krait LNX; long-neurotoxin from Krait
T4 sequence: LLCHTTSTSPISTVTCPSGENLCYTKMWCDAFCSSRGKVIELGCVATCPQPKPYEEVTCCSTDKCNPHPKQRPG

B1: SNEURO_P01_B11 (antibody, V domains shown)
VH: QVQLQESGGGLVQPGGSLRLSCAASGFTFSNFDMHWVRQSPGKGLEWVSGLDHSGGAHYAGSVKGRFTISREDAKNSLDLQMNNLRVDDTAVYFCVRGTLYHYTSGSYYSDAFDIWGQGTLVTVSS
VL: DIVMTQSPSSLSASVGDRVTITCRASQGISDNLNWYQQKPGKAPKLLIYAASTLQSGVPSRLSGSGSGTDFTLTISSLQPEDFATYYCQQANSFPLTFGGGTKVEIKR
Kd [1]: 2.1 nM
koff [1]: 0.00038 s⁻¹
kon [1]: 180000 M⁻¹ s⁻¹
Kd [2]: 35 nM
koff [2]: 0.0052 s⁻¹
kon [2]: 150000 M⁻¹ s⁻¹
Kd [3]: 0.41 nM
koff [3]: 9e-05 s⁻¹
kon [3]: 220000 M⁻¹ s⁻¹

B2: SNEURO_P01_D09 (antibody, V domains shown)
VH: EVQLVESGGGFVQPGGSLRLSCAASGFTFSNFDMHWVRQSPGKGLEWVSGLDHSGGAHYAGSVKGRFTISREDAKNSLDLQMNNLRVDDTAVYFCVRGTLYHYTSGSYYSDAFDIWGQGTLVTVSS
VL: EIVLTQSPSSLSASVGDRVTITCQASQDISNYLNWYQQKPGKAPKLLIYAASSLESGVPSRFSGSGSGTDFTLTISSQQPEDFATYYCQQANSFPYTFGQGTKVEIKR
Kd [4]: 0.49 nM and 0.96 nM
Kd [2]: 1.5 nM

B3: SNEURO_P01_D09 FW germlined (antibody, V domains shown)
VH: EVQLVESGGGLVQPGGSLRLSCAASGFTFSNFDMHWVRQATGKGLEWVSGLDHSGGAHYAGSVKGRFTISRENAKNSLYLQMNSLRAGDTAVYYCVRGTLYHYTSGSYYSDAFDIWGQGTLVTVSS
VL: DIQMTQSPSSLSASVGDRVTITCQASQDISNYLNWYQQKPGKAPKLLIYAASSLESGVPSRFSGSGSGTDFTLTISSLQPEDFATYYCQQANSFPYTFGQGTKVEIK
koff [5]: 0.000304 s⁻¹
koff [6]: 0.000366 s⁻¹

B4: SNEURO_P01_D09 VK L3 NS->QS (antibody, V domains shown)
VH: EVQLVESGGGFVQPGGSLRLSCAASGFTFSNFDMHWVRQSPGKGLEWVSGLDHSGGAHYAGSVKGRFTISREDAKNSLDLQMNNLRVDDTAVYFCVRGTLYHYTSGSYYSDAFDIWGQGTLVTVSS
VL: EIVLTQSPSSLSASVGDRVTITCQASQDISNYLNWYQQKPGKAPKLLIYAASSLESGVPSRFSGSGSGTDFTLTISSQQPEDFATYYCQQAQSFPYTFGQGTKVEIKR
koff [6]: 0.000304 s⁻¹

B5: SNEURO_P01_D09 VK germlined (antibody, V domains shown)
VH: EVQLVESGGGFVQPGGSLRLSCAASGFTFSNFDMHWVRQSPGKGLEWVSGLDHSGGAHYAGSVKGRFTISREDAKNSLDLQMNNLRVDDTAVYFCVRGTLYHYTSGSYYSDAFDIWGQGTLVTVSS
VL: DIQMTQSPSSLSASVGDRVTITCQASQDISNYLNWYQQKPGKAPKLLIYAASSLESGVPSRFSGSGSGTDFTLTISSLQPEDFATYYCQQANSFPYTFGQGTKVEIK
koff [5]: 6.95e-05 s⁻¹
koff [6]: 0.000392 s⁻¹
koff [7]: 5.59e-05 s⁻¹

B6: SNEURO_P01_D09 VK L3 NS->NT (antibody, V domains shown)
VH: EVQLVESGGGFVQPGGSLRLSCAASGFTFSNFDMHWVRQSPGKGLEWVSGLDHSGGAHYAGSVKGRFTISREDAKNSLDLQMNNLRVDDTAVYFCVRGTLYHYTSGSYYSDAFDIWGQGTLVTVSS
VL: EIVLTQSPSSLSASVGDRVTITCQASQDISNYLNWYQQKPGKAPKLLIYAASSLESGVPSRFSGSGSGTDFTLTISSQQPEDFATYYCQQANTFPYTFGQGTKVEIKR
koff [6]: 0.000769 s⁻¹

B7: SNEURO_P01_D09 VH germlined (antibody, V domains shown)
VH: EVQLVESGGGLVQPGGSLRLSCAASGFTFSNFDMHWVRQATGKGLEWVSGLDHSGGAHYAGSVKGRFTISRENAKNSLYLQMNSLRAGDTAVYYCVRGTLYHYTSGSYYSDAFDIWGQGTLVTVSS
VL: EIVLTQSPSSLSASVGDRVTITCQASQDISNYLNWYQQKPGKAPKLLIYAASSLESGVPSRFSGSGSGTDFTLTISSQQPEDFATYYCQQANSFPYTFGQGTKVEIK
koff [5]: 8.54e-05 s⁻¹
koff [6]: 0.000488 s⁻¹
